This data set deals with Saccharomyces cerevisiae. Briefly: protein stability index of tFT-peptide fusion (C-terminal peptide) (PSI (0-1 scale)); higher = more stable (slower turnover). The note with it: temperature: 30 C. The protocol:
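MPS profiling in S. cerevisiae of the yeast C-terminome library: the last 12 aa of each annotated ORF are fused to the C-terminus of a sfGFP-mCherry timer, after a GGGS linker. Cells are FACS-sorted into 8 mCherry/sfGFP bins and deep-sequenced. PSI runs from 0 (unstable) to 1 (stable); wild type and das1Δ backgrounds, two technical replicates each.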

Where [1] appears, read: genetic background: das1 deletion.

± gives the standard deviation of the averaged measurements.

RRRASKNAFRGM [ENP2 C-terminal 12 aa]: the protein stability index under setting [1] was determined as 0.696 ± 0.02 and the protein stability index (genetic background: wild type) was 0.692 ± 0.014.

On to RSRKWKRRLFHL [PEX32 C-terminal 12 aa], for which the protein stability index runs as follows: under setting [1], 0.825 ± 0.038; (genetic background: wild type) 0.6 ± 0.12.

In turn, RSRSINGDWRKD [PAN5 C-terminal 12 aa] displayed a protein stability index under setting [1] of 0.6835 ± 0.0046 and a protein stability index (genetic background: wild type) of 0.6967 ± 0.0028.

For the sequence RSTFLMHGRLAT [MAK3 C-terminal 12 aa], the protein stability index came out at 0.707 ± 0.02 under setting [1] and 0.702 ± 0.019 (genetic background: wild type).

As to RVAVIEDDEDED [LEO1 C-terminal 12 aa], the protein stability index came to 0.688 ± 0.0068 under setting [1] and 0.692 ± 0.021 (genetic background: wild type).

Turning to RVGQTNSPSDSQ [DFM1 C-terminal 12 aa], the protein stability index by setting is: under setting [1], 0.706 ± 0.0087; (genetic background: wild type) 0.695 ± 0.049.

RVKILHRDDTKK [UPF3 C-terminal 12 aa]: the protein stability index under setting [1] turned out to be 0.707 ± 0.024 and the protein stability index (genetic background: wild type) stood at 0.732 ± 0.093.

RWHIQRITSPLS [STP22 C-terminal 12 aa]: the protein stability index turned out to be 0.74 ± 0.048 under setting [1] and 0.719 ± 0.028 (genetic background: wild type).

For RYKILDLIISKL [UTP6 C-terminal 12 aa], the protein stability index by setting is: under setting [1], 0.789 ± 0.042; (genetic background: wild type) 0.683 ± 0.04.

As to RYVIFQSCGLIL [MRX8 C-terminal 12 aa], the protein stability index came out at 0.657 ± 0.031 under setting [1] and 0.683 ± 0.012 (genetic background: wild type).

As for SAQDSDIDLQDA [MCM7 C-terminal 12 aa], the protein stability index runs as follows: under setting [1], 0.695 ± 0.0088; (genetic background: wild type) 0.682 ± 0.031.

With SASSTPSSTTMS [SPT20 C-terminal 12 aa], the protein stability index reads like this: under setting [1], 0.682 ± 0.0019; (genetic background: wild type) 0.681 ± 0.011.

With SCRTTPQVRARA [YLR279W C-terminal 12 aa], the protein stability index under setting [1] worked out at 0.6944 ± 0.0046 and the protein stability index (genetic background: wild type) worked out at 0.6946 ± 0.0043.

Turning to SDENIQPELRGQ [ABF1 C-terminal 12 aa], the protein stability index reads like this: under setting [1], 0.675 ± 0.018; (genetic background: wild type) 0.723 ± 0.047.

For the sequence SEETKKSCCSGK [CUP1-1 C-terminal 12 aa], the protein stability index runs as follows: under setting [1], 0.695 ± 0.01; (genetic background: wild type) 0.757 ± 0.048.

SEINDDFHQWAQ [DEP1 C-terminal 12 aa]: the protein stability index is 0.727 ± 0.021 under setting [1] and 0.698 ± 0.0071 (genetic background: wild type).

As for SEIVDISQLPPG [ILV6 C-terminal 12 aa], the protein stability index runs as follows: under setting [1], 0.6812 ± 0.0022; (genetic background: wild type) 0.7033 ± 0.0062.

Consider “SFDVELVGLKFV [YHL019W-A C-terminal 12 aa]”, for which the protein stability index reads like this: under setting [1], 0.7172 ± 0.005; (genetic background: wild type) 0.695 ± 0.029.

SFFCRSSSKSSK [YSC83 C-terminal 12 aa]: the protein stability index turned out to be 0.7232 ± 0.0053 under setting [1] and 0.724 ± 0.0074 (genetic background: wild type).

SGFFSSLKTMFN [PAR32 C-terminal 12 aa]: the protein stability index is, setting by setting: under setting [1], 0.719 ± 0.027; (genetic background: wild type) 0.726 ± 0.058.

As for SGNNLGICFYKE [NUP170 C-terminal 12 aa], the protein stability index is, setting by setting: under setting [1], 0.6733 ± 0.005; (genetic background: wild type) 0.677 ± 0.019.

SHYHMWPIKRII [YMR082C C-terminal 12 aa]: the protein stability index turned out to be 0.6853 ± 0.0064 under setting [1] and 0.567 ± 0.011 (genetic background: wild type).

With SIDELETEISTW [BCP1 C-terminal 12 aa], the protein stability index reads like this: under setting [1], 0.718 ± 0.015; (genetic background: wild type) 0.6932 ± 0.0068.

SKEFVGSVYLNF [TRL1 C-terminal 12 aa] returned a protein stability index under setting [1] of 0.679 ± 0.009 and a protein stability index (genetic background: wild type) of 0.678 ± 0.03.

As for SKILFLCQINIS [YNR042W C-terminal 12 aa], the protein stability index by setting is: under setting [1], 0.312 ± 0.03; (genetic background: wild type) 0.313 ± 0.015.

Consider SKIPSSLYIYHM [YGL042C C-terminal 12 aa], for which the protein stability index is 0.7073 ± 0.0067 under setting [1] and 0.619 ± 0.04 (genetic background: wild type).

On to SKLNAVHTANEK [SEC8 C-terminal 12 aa], for which the protein stability index reads like this: under setting [1], 0.712 ± 0.016; (genetic background: wild type) 0.686 ± 0.022.

Consider SLENVAMLVYKK [TRM13 C-terminal 12 aa], for which the protein stability index under setting [1] is 0.698 ± 0.048 and the protein stability index (genetic background: wild type) was 0.66 ± 0.026.

Take SLKPSEKKLYYL [NTH2 C-terminal 12 aa]: the protein stability index by setting is: under setting [1], 0.721 ± 0.0073; (genetic background: wild type) 0.663 ± 0.02.

The sequence SLLGIQKSVRNL [MDM20 C-terminal 12 aa] gave a protein stability index under setting [1] of 0.691 ± 0.056 and a protein stability index (genetic background: wild type) of 0.6654 ± 0.006.

In the case of SLNQPELINFKS [IZH4 C-terminal 12 aa], the protein stability index under setting [1] was 0.714 ± 0.017 and the protein stability index (genetic background: wild type) stood at 0.71 ± 0.046.

SLQKIDATYIRG [SDS22 C-terminal 12 aa]: the protein stability index came out at 0.702 ± 0.017 under setting [1] and 0.687 ± 0.017 (genetic background: wild type).

Regarding SLSSLSNQRCTT [YCR023C C-terminal 12 aa], the protein stability index worked out at 0.709 ± 0.011 under setting [1] and 0.68 ± 0.052 (genetic background: wild type).

SMGNYYKSFFSM [OMA1 C-terminal 12 aa] yielded a protein stability index under setting [1] of 0.704 ± 0.02 and a protein stability index (genetic background: wild type) of 0.6294 ± 0.0025.

Turning to SNHECSQINLLE [YCL021W C-terminal 12 aa], the protein stability index worked out at 0.695 ± 0.018 under setting [1] and 0.688 ± 0.017 (genetic background: wild type).

For SPTRKRPPPRLS [INN1 C-terminal 12 aa], the protein stability index amounted to 0.726 ± 0.0049 under setting [1] and 0.722 ± 0.0076 (genetic background: wild type).

Consider SQDDSILSSDPF [NIS1 C-terminal 12 aa], for which the protein stability index by setting is: under setting [1], 0.715 ± 0.015; (genetic background: wild type) 0.666 ± 0.014.

Regarding SQFVNDPFWANI [HIS2 C-terminal 12 aa], the protein stability index amounted to 0.757 ± 0.031 under setting [1] and 0.756 ± 0.04 (genetic background: wild type).

Turning to SQIRTPLVMLLM [YOR318C C-terminal 12 aa], the protein stability index by setting is: under setting [1], 0.651 ± 0.025; (genetic background: wild type) 0.454 ± 0.0056.

With SQPDYKYLFDTQ [YRM1 C-terminal 12 aa], the protein stability index is 0.71 ± 0.027 under setting [1] and 0.623 ± 0.025 (genetic background: wild type).

Turning to SRIIIKAARGII [YOR082C C-terminal 12 aa], the protein stability index is, setting by setting: under setting [1], 0.704 ± 0.042; (genetic background: wild type) 0.678 ± 0.019.

Turning to SRRFYRKIDHLA [YLR400W C-terminal 12 aa], the protein stability index is, setting by setting: under setting [1], 0.699 ± 0.02; (genetic background: wild type) 0.507 ± 0.018.

In turn, SRVVLSQGDSDD [TOF1 C-terminal 12 aa] had a protein stability index under setting [1] of 0.68424 ± 0.00057 and a protein stability index (genetic background: wild type) of 0.662 ± 0.026.

As for SSSSLYTESPIR [IGO1 C-terminal 12 aa], the protein stability index was 0.7011 ± 0.0054 under setting [1] and 0.717 ± 0.066 (genetic background: wild type).

SSVVSIPLREIL [YNR048W C-terminal 12 aa]: the protein stability index amounted to 0.712 ± 0.016 under setting [1] and 0.711 ± 0.07 (genetic background: wild type).

Take STITSMNPDTTK [VHS2 C-terminal 12 aa]: the protein stability index by setting is: under setting [1], 0.711 ± 0.031; (genetic background: wild type) 0.669 ± 0.04.

Regarding STKATPTDLSKL [MLS1 C-terminal 12 aa], the protein stability index reads like this: under setting [1], 0.7565 ± 0.0027; (genetic background: wild type) 0.8075 ± 0.0051.

On to STTMNFNYQTKV [SDD1 C-terminal 12 aa], for which the protein stability index runs as follows: under setting [1], 0.696 ± 0.011; (genetic background: wild type) 0.363 ± 0.0082.

As to STVLINVCKPTY [BAR1 C-terminal 12 aa], the protein stability index was 0.681 ± 0.013 under setting [1] and 0.667 ± 0.048 (genetic background: wild type).

As for SVFIAAVAAMLI [CCW14 C-terminal 12 aa], the protein stability index runs as follows: under setting [1], 0.603 ± 0.013; (genetic background: wild type) 0.586 ± 0.016.

(Values after the supplement of paper PMC10724198.)
